The text below walks through data of the DeepSol protein solubility set.

A short description of the series: soluble on expression in E. coli; label from the status in PepcDB or PDB records.
Take “MSLKAIIFDMDGVLVDSMRFQADAWAKAFQDAGINIVREDIYELEGSNDKRLIKSIFKEARKEPEPEHFERLPEKKRDLLEFDRIKPFEGIPECLDELKRHFRLAMVSGSNRNTVGKIVDKFFSGYFDVVINGSDLERGKPDPDPYLKALEMLGLTKNECMVIENAPLGITAAKRAGLYCVAVASMLEPEKVQHADLVLEDHASLFDYLKSLIPGKPQTEGHHHHHH”: the “soluble on expression in E. coli” value is reported as “soluble”.

For the sequence “MSLKARFLLLAALLSGVAGAYTVKKGDTLYSLARGSGLTVDALMRLNGLSTPELRVGQVIKLPGEGAATPATPAPAAPTPATPAPAAPAPAPAVPTKLPTVATAANVLKLPGVTITAPKALKMGDGFALRLSGEQAANVTVRFPSELGEDVRQPNEELRPLWSSGQYIVPGRVVLGKTTPVIYEVRLGGDVVRGQIPVGDLGQRVQHLNLPPSISKVLQDPAREAEDAAVEQAYQRRTPQQWQQPFASALASGKATSSSFGQPRTYVAGGKVAYHYGTDYPARSGTAVLAINDGTVVIAGRYPVRGGLVVIDHGAGVVSLYFHQSKVTAKVGQQIKRGQKVGEVGSTGLSAGPHLHLEVRVRGEGTNPAGWMGKLWPEGHHHHHH”, the “soluble on expression in E. coli” value is “not soluble”.

Turning to “MSLKASELKKGFAIISNGKTLLIKDIEVTTPGGRGGSKIYKLRCTDLNTGARVDERYKSDDVLDTVEMNKRPISFSYIDGDEYVFMNNDDYTPYNFKKDEIEDELLFITEEIQGMSVVLVDGEAVAIELPSSVEMVIEETDPSIKGASASSRTKPARMPTGLVVQVPEYIATGDRIVINTAERKFMNRAEGHHHHHH”, the “soluble on expression in E. coli” value was “soluble”.

Regarding “MSLKAVFVYEPLGNENVKVEEVSEPKKEQGKVIIEVKKAGLNPIDYNVINGKIVYRLNPLPHIPGSEVYGIVKEDSGSFKKGERVIVYNRIFDGTCSQCISGNEHLCENGGIWGVVSNGGYSQLVQIDEKNVFRVPEDASDELAASIGVAALTSFRAIRISGCSPGRSILIYGASGNTGMFAVQLASMMGCDVYAVSRKDWIESFGAIEVFRPDNIPPDMKFDIIINPLGSLFWGDALKHLRTRGILVSFGVLTGREGSIDIADLYTGEKKILGSTGGTREDLRGLLEFMKTHELRVKIAREFKINEIKDALKYYSETHDGRILISMREGHHHHHH”, the “soluble on expression in E. coli” value is given as “not soluble”.

For the sequence “MSLKAVIFDLDGVITDTAEYHFLAWKHIAEQIDIPFDRDMNERLKGISREESLESILIFGGAETKYTNAEKQELMHRKNRDYQMLISKLTPEDLLPGIGRLLCQLKNENIKIGLASSSRNAPKILRRLAIIDDFHAIVDPTTLAKGKPDPDIFLTAAAMLDVSPADCAAIEDAEAGISAIKSAGMFAVGVGQGQPMLGADLVVRQTSDLTLELLHEEWEQYRIRESEGHHHHHH”, the “soluble on expression in E. coli” value is “soluble”.

Take “MSLKDLVVGMELGYPPFEMSDKTGKASGISVDFLEAFAKKNGYKLVVKNIAWDGLIPALKTAKIDLIMSSMTITDKRKKVVDFSIPYAKANLAILTPLNSDITNIKDLDKKGKVLALKRGSTGHLYAVKNLKNATINLFDKENAAILEVIQGKADGFFYDQLTIYRTWQKHQDTTRAILAPFQENPEFWGIAVRKGDEALKDKLDNFIDESRKNGFLDFLGNKYLKDIKEGHHHHHH”: the “soluble on expression in E. coli” value is “soluble”.

Regarding “MSLKFAAGFVLIDAPHSALNMLGIDESLPDRNVTRVKTLRRGGNRYVYISPQAWRYWWRITLKEYFNWELSPLFREEKQVFTAANPIKYPDDDVFGYMRAYKKNKVNVTVTRISPLKNTPLVSVLPDRSSLTIDEGYASRHEGDPVPYSQEFYSTVLKGAFSLDLDLVGRFTTKNKAGYKNLLTRDDIPKKGKGEDIVKEIKELEELARNVGVEIKDGEWIMPKEIRKKRSIETIKALRYLTGGAKQTQYHTDVTPKLFLGIIVNGGINPFISDIVREEKGEIILDAEALATRLEDFSDIIDSKLFLGYDMGFVRSLGLEIEAIKSTAGIEVVEGKVGEIIEKFAEEAGKYYIEGHHHHHH”, the “soluble on expression in E. coli” value is “soluble”.

Take “MSLKGIVEKSVGDLETLAFDGRTYIEYLNAVTESEKALQSNHFELSLRTEATQGLVLWIGKVGERADYMALAIVDGHLQLSYDLGSQPVVLRSTVKVNTNRWLRVRAHREHREGSLQVGNEAQVTGSSPLGATQLDTDGALWLGGMQKLPVGQALPKAYGTGFVGCLRDVVVGHRQLHLLEDAVTKPELRPCPTEGHHHHHH”: the “soluble on expression in E. coli” value was “soluble”.

As for “MSLKHHHNHHGEAGFKRKVDYLDRPERSEVLSPEDFLQAMPIGKTASILDLGAGTGFLTIPAAKLVDNTVFALDLDAKMLELIESKAKEAGLANVETLEASMDDIPLEANSVDVVLASLVLHEADSLADVLREVSRVVKTGGYFASLEFDTKGTDLKGPPMEIQISAEKLKEELAGFGFEVVKNWQLDEGMYVSIAVKKEGHHHHHH”, the “soluble on expression in E. coli” value is “soluble”.

With “MSLKIAIVNDMPMAVEALRRALAFDPSHEVVWVATNGAEAVKYCAELTPDLILMDLIMPVMDGVEATRRIMAESPCAIVIVTVDRQQNVHRVFEAMGHGALDVVDTPALGAGNAQEAAAPLLRKILNIGWLIGQRGSRVRSAPQPLRSGAPRQSLVAIGSSAGGPAALEVLLKGLPKDFAAAIVLVQHVDQVFAAGMAEWLSSASGLEVRLAREGEPPQSGKVLLAGTNHHIRLLKNGTLAYTAEPVNEIYRPSIDVFFESVASFWNGDAVGVLLTGMGRDGAQGLKLMRDQGYLTIAQDQNSSAVYGMPKAAAAIGAASEIRPLDKIAPRLLEIFAKEGHHHHHH”, the “soluble on expression in E. coli” value is listed as “soluble”.

As to “MSLKIIAFYLPQFHQIKENDRWWGKGFTEWTNTKSAQPLFSGHYQPREPYQDFYYDLTTPSVRKWQAEIAKAYGIYGFCYYHYWFKGKRLLETPFNEVLKMKEPDFPFCLSWANEPWTKSWDGLDKHILMPQDYGDISDWKEHFDYLLQAFQDERYIYIDDKPLFIIYRPGHIPDCEKMLNYWNALARENGLKGIYFAETLNSFPLPNINGFDASIQFEPFYTIAHDSSSDINKVIYDSDMQLNVWDYDKVWMYILQRSLPKKKTFPGAFVDWDNTARRKNANSSIFVGSTPEKFTIYLSKQIHRTYSFYNSEFLFINAWNEWAEGTYLEPDKKYGFSYLEGVKNAIDRGMKAYKKDEGHHHHHH”, the “soluble on expression in E. coli” value is on record as “soluble”.

On to “MSLKIKVGLIGFGRMGRFYLKEMQKSGRWDVAYICDINPDCRELAKQLSPESKILENEQEMFDDESVQVVGLFALADSRLDRIEKAIKYGKHIISEKPVSDTIDKEWKVVDITEKASCFSTVNLYLRNAWYHQTIKQFIDQGEIGELAILRICHMTPGLAPGEGHEYEGPAFHDCGMHYVDIARWYAGCEYKTWHAQGVNMWSYKDPWWVQCHGTFQNGVVFDITQGFVYGQLSKDQTHNSYVDIIGTKGIARMTHDFKTAVVDLRGVTQTHHIEKPFGGKNIDVLCDLFADSIETGIRNPQLPLIRDSAIASEYAWTFLHDAYTHDLPAIGEGHHHHHH”, for which the “soluble on expression in E. coli” value was “soluble”.

With “MSLKINAILDQSNASAEKVDAYQVQLTNGISEAKNIADEAGKEAVQIATDAGNQANETANQAMNNAKTAIMIAGNAVSTANNNKQEFDTLRNDFDQLVAEAGDSNPEIVQARTDTQGIKQATLANRLQIDLNDRMTKADGISLLAKPTTVKMKLDFNGKTAGNTATNANSYSTDFTAKILKKPTEVWEEVSQADYNKMASRDDEGVKTGSTQSGVIPQQLAAFNLVEAAKKLIPQMFETVTTDEAVAFIRQNVQFFTINQRVKAAAPNNQTIKIATYLPTTDNWVTQIQESAKEFGDFSIQINDQNFITDEGFIYLMSYTDSSNGVTPASLEVDYVGLHIGLSVDAQAVLAKSGFVQAEQLNTHMENQDNPHQVTAEQVGLGNVENYGFASDSEAVAGTLTSKYMHPKNVAEAIKGQAVTQTGDQEIAGVKNFVTMPTVNGVPLESSRMAIYEASGVGEVEAKYQAAFNKDNMKFVLIRVGNRVDAFVRCNLSDPTKLNNNLVKVFTVPTGYTLSTKITKGIWNLALTAMQYTFPQPNCAGLYEMGNQGILFGANRAGNIYLQGSWYTDDPFPTKEGHHHHHH”, the “soluble on expression in E. coli” value is on record as “soluble”.

As to “MSLKITIYDLAELSGVSASAVSAILNGNWKKRRISAKLAEKVTRIAEEQGYAINRQASMLRSKKSHVIGMIIPKYDNRYFGSIAERFEEMARERGLLPIITCTRRRPELEIEAVKAMLSWQVDWVVATGATNPDKISALCQQAGVPTVNLDLPGSLSPSVISDNYGGAKALTHKILANSARRRGELAPLTFIGGRSSDHNTSERLRGFHDAHRELGLSVPQANILAPGYSKGHVEDCLQERFGSAKTLLQGIFVNSTISLEGVVRWLSQVGLTGSEQPPMGCFDWDPFVYLLGHDIDMVQQDVPAMLDAVFSIIDAGEASQQRIEIPPRLMSSSEGHHHHHH”, the “soluble on expression in E. coli” value is on record as “soluble”.

With “MSLKIYFLPMLLSLFFLGACDKNDEIIPEDADENFITSVVMTVDGKSYTADITDNTVTITVPYTVSLNNAEVEFKYTTSATIIPDPETVTDWDNERTFRVTSYNGDAREYTYKVVKSEIESDGDVELKTTEEVASFAATKTTVVKGNLIIGSDAEEAEKITDISALASLKEVTGNIVIRNSYNGADLTGLDNIVSAGGLQVGSTDVASKATELHMISMKALETLSGDISVYNDQVTYVLFEKLATIEGSVMFNASSLQSFEFPVLTTVGQDLNLQGLNEENTAAGSIASLEIPELTSVGGVLSVNNLAKLTSMSFLKLKETGGLDFHTVPVMLETINLPEIETVNGSIIMEANMEAPPTGSFVPQRNDVLQAFGGMDKLTTIKGQIKIKNFTALKQLPDWSKITTLGSITLDYLEDVSGTLLLPNARFETFGETAPQIEIINKVQLSKIETAEDLSNVNFVITSLTNNKFPEITFKNIKDFTCKPTTNNTDYTISTIQHVYGNLNVTGQMRSNAKFPDLEIIDGYGYIQIPMFASITMPVLKEVGGQFYLSGNFTSCNLPLLSKVCCSASPVYYKEGEGSLAISLQSKSLDIPELLHVGGEGLFVNKATGITCDKLQTIDGTLQIKSATSLSQETLSMEKLETLHGVVFDGLTKFTDYTFFGKFIENGMITGESWSVTKCGYNPTFQNMKDKQYTEGHHHHHH”, the “soluble on expression in E. coli” value is listed as “soluble”.

With “MSLKKIGIIGAGGIARAHATALSTIKNAELVGVYDINQQNAESFVKTFGGKSFENVDELIDASEGLIVASPNFCHKEHALQALGKHKHVLCEKPMAISLEEASIMKDTAERLSVRASMGFNYRYLSYVNILKSLIINNELGNILSIKVHFKKNSALRRKKFTWRDDANSKKTSGSLGDLGIHLIDMVWYLFESDFITESVRAKMNTNVKTKEDKQVLVDDYAEIYGQLRNKVFVNIITSKCSVPEDCGFSIEVVGHKKEFKYHTGNPHVYKLIDGLNVVDCPVPQSLLNDPPNEFYGWADSFRSELINWIASTQNDWVEIPSFSDGFRSQEVLEMFFEKDSNSQPMSVSAVNEGHHHHHH”, the “soluble on expression in E. coli” value is given as “soluble”.

On to “MSLKKITGDDVLIPLETPESMHKEYIQNYLNLTRNTGNLMLFAGDQKIEHLNEDFYGKDISKDDADPEHLFKIAENSKIGGFAVQFGLLSRYGRDHKDINYIVKLNSKTNLVDTNQKDPLSRALLDINDILEFKKNSGINIVGVGYTIYLGSEYESEMLSEASKIIYEAHKGGLVVILWIYPRGKAVKDEKDSELISGATGVAACLGADFVKVNYPKSENPAESFKEAVMAAGRTKVVCAGGSSTDIESFLKQLYEQIHISGASGNATGRNIHQKSLSDAVSMCNAIYAITIDGKTVSEALNIYNERKSEGHHHHHH”, for which the “soluble on expression in E. coli” value is “soluble”.

On to “MSLKLHHLNDSRSFRILWLLEEIGQPYEIIRYQRDKETHLAPETLKDIHPLGKSPVIELDGKIIAESGSITEVLIKEFAPHLAPNEKSPEYIDYLQWIHFSESSAMLPLLLKIFNEFETRSGTDLKFLKNYAEIEFNKVFSYLNNHLNNKKFLVEDRLTGADFMLGFVVKGALNLLKSSGAFPHIESYITNIENQISYKRALDIDANEGHHHHHH”, for which the “soluble on expression in E. coli” value is reported as “soluble”.

As for “MSLKLISNDLRDGDKLPHRHVFNGMGYDGDNISPHLAWDDVPAGTKSFVVTCYDPDAPTGSGWWHWVVVNLPADTRVLPQGFGSGLVAMPDGVLQTRTDFGKTGYDGAAPPKGETHRYIFTVHALDIERIDVDEGASGAMVGFNVHFHSLASASITAMFSEGGSHHHHHH”, the “soluble on expression in E. coli” value is “soluble”.
